Measured values reported in US20090311283A1.
Read-outs that look alike come from different tables or passages of the source.

Tests used:
[1] = target: HLA-A*3101 (human); experiment: competition with 125I-labelled probe peptide for purified HLA-A*3101, gel filtration; ratio to standard peptide 941.12
[2] = target: HLA-A*3301 (human)
[3] = target: HLA-A*6801 (human); experiment: competition with 125I-labelled probe peptide for purified HLA-A*6801, gel filtration; ratio to standard peptide 941.12
[4] = target: HLA-A*0301 (human); experiment: inhibition of binding of a 125I-labelled probe peptide to purified HLA-A*0301, gel filtration; relative to the standard peptide
[5] = target: HLA-A*1101 (human)
[6] = target: HLA-A*6801 (human); experiment: competition with 125I probe peptide on purified HLA-A*6801; relative to standard peptide 941.12
[7] = target: HLA-A*0301 (human); experiment: competition with 125I probe peptide on purified HLA-A*0301; relative to standard peptide 941.12
[8] = target: HLA-A*3101 (human); experiment: competition with 125I probe peptide on purified HLA-A*3101; relative to standard peptide 941.12
[9] = target: HLA-A*0301 (human); experiment: competition with 125I-labelled probe peptide for purified HLA, gel filtration
[10] = target: HLA-A*1101 (human); experiment: as above
[11] = target: HLA-B*5401 (Human); experiment: as above
[12] = target: HLA-B*3501 (Human); experiment: as above
[13] = target: HLA-B*5101 (Human); experiment: as above
[14] = target: HLA-A*0301 (human); experiment: competitive inhibition of 125I-labelled probe peptide binding to purified HLA; relative to standard peptide
[15] = target: HLA-A*3301 (human); experiment: as above
[16] = target: HLA-A*3101 (human); experiment: as above
[17] = remark: other sources report otherwise

B1: HBV POL 2 peptide PLSYQHFR (peptide)
peptide: PLSYQHFR
modifications: not checked
binding affinity ratio (IC50 of standard peptide / IC50 of test peptide) [1]: -0.0009
binding affinity ratio (IC50 of standard peptide / IC50 of test peptide) [2]: -0.0009
binding affinity ratio (IC50 of standard peptide / IC50 of test peptide) [3]: 0.0001

B2: HBV X 64 peptide … (peptide)
peptide: SSAGPCALRF
modifications: not checked
binding affinity ratio (IC50 of standard peptide / IC50 of test peptide) [4]: -0.0003

B3: HBV POL 520 peptide SAICSVVR (peptide)
peptide: SAICSVVR
modifications: not checked
binding affinity ratio (IC50 standard peptide / IC50 test peptide) [2, 17]: 0.0081
binding affinity ratio (IC50 standard peptide / IC50 test peptide) [5, 17]: 0.0071
binding affinity ratio (IC50 standard peptide / IC50 test peptide) [6, 17]: 0.069
binding affinity ratio (IC50 standard peptide / IC50 test peptide) [7, 17]: -0.0002
binding affinity ratio (IC50 of standard peptide / IC50 of test peptide) [4, 17]: -0.0002
binding affinity ratio (IC50 standard peptide / IC50 test peptide) [8, 17]: 0.028

B4: … (HBV NUC 118) (peptide)
peptide: YLVSFGVWIR
modifications: not checked
binding affinity ratio (IC50 of standard peptide / IC50 of test peptide) [9]: 0.0005
binding affinity ratio (IC50 of standard peptide / IC50 of test peptide) [10]: 0.0002

B5: HBV POL 20 peptide PLEEELPR (peptide)
peptide: PLEEELPR
modifications: not checked
binding affinity ratio (IC50 of standard peptide / IC50 of test peptide) [1]: -0.0009
binding affinity ratio (IC50 of standard peptide / IC50 of test peptide) [2]: -0.0009
binding affinity ratio (IC50 of standard peptide / IC50 of test peptide) [5]: -0.0002
binding affinity ratio (IC50 of standard peptide / IC50 of test peptide) [3]: 0.0001

B6: HBV POL 2 peptide … (peptide)
peptide: PLSYQHFRK
modifications: not checked
binding affinity ratio (IC50 of standard peptide / IC50 of test peptide) [1]: 0.0006
binding affinity ratio (IC50 of standard peptide / IC50 of test peptide) [5]: 0.0031
binding affinity ratio (IC50 of standard peptide / IC50 of test peptide) [3]: 0.0002

B7: HBV X 65 peptide … (peptide)
peptide: SAGPCALRF
modifications: not checked
binding affinity ratio (IC50 of standard peptide / IC50 of test peptide) [4]: -0.0003

B8: HBV NUC 44 peptide … (peptide)
peptide: SPEHCSPHHTA
modifications: not checked
binding affinity ratio (IC50 of standard peptide / IC50 of test peptide) [11]: 0.0011
binding affinity ratio (IC50 of standard peptide / IC50 of test peptide) [12]: 0.0001
binding affinity ratio (IC50 of standard peptide / IC50 of test peptide) [13]: 0.0001

B9: HBV POL 771 peptide … (peptide)
peptide: SALNPADDPSR
modifications: not checked
binding affinity ratio (IC50 standard peptide / IC50 test peptide) [2]: -0.0023
binding affinity ratio (IC50 standard peptide / IC50 test peptide) [5]: -0.0003
binding affinity ratio (IC50 standard peptide / IC50 test peptide) [6]: 0.0003
binding affinity ratio (IC50 standard peptide / IC50 test peptide) [7]: -0.0004
binding affinity ratio (IC50 of standard peptide / IC50 of test peptide) [4]: -0.0004
binding affinity ratio (IC50 standard peptide / IC50 test peptide) [8]: -0.0012

B10: HBV POL 569 peptide … (peptide)
peptide: HLNPNKTKR
modifications: not checked
binding affinity ratio (IC50 of standard peptide / IC50 of test peptide) [14]: 0.0025

B11: HBV NUC 29 peptide GMDIDPYK (peptide)
peptide: GMDIDPYK
modifications: not checked
binding affinity ratio (IC50 of standard peptide / IC50 of test peptide) [15]: -0.0009
binding affinity ratio (IC50 of standard peptide / IC50 of test peptide) [14]: 0.0006
binding affinity ratio (IC50 of standard peptide / IC50 of test peptide) [16]: -0.0009

B12: HBV NUC 188 peptide RTPSPRRR (peptide)
peptide: RTPSPRRR
modifications: not checked
binding affinity ratio (IC50 standard peptide / IC50 test peptide) [2]: 0.0014
binding affinity ratio (IC50 standard peptide / IC50 test peptide) [5]: -0.0002
binding affinity ratio (IC50 standard peptide / IC50 test peptide) [6]: 0.0002
binding affinity ratio (IC50 standard peptide / IC50 test peptide) [7]: -0.0002
binding affinity ratio (IC50 of standard peptide / IC50 of test peptide) [4]: -0.0002
binding affinity ratio (IC50 standard peptide / IC50 test peptide) [8]: 0.0033

B13: HBV POL 98 peptide … (peptide)
peptide: PLTVNEKRR
modifications: not checked
binding affinity ratio (IC50 of standard peptide / IC50 of test peptide) [2]: 0.0027
binding affinity ratio (IC50 of standard peptide / IC50 of test peptide) [5]: 0.0005
binding affinity ratio (IC50 of standard peptide / IC50 of test peptide) [3]: 0.0002

B14: HBV POL 98 peptide PLTVNEKR (peptide)
peptide: PLTVNEKR
modifications: not checked
binding affinity ratio (IC50 of standard peptide / IC50 of test peptide) [1]: -0.0009
binding affinity ratio (IC50 of standard peptide / IC50 of test peptide) [2]: -0.0009
binding affinity ratio (IC50 of standard peptide / IC50 of test peptide) [5]: -0.0002
binding affinity ratio (IC50 of standard peptide / IC50 of test peptide) [3]: 0.0001
